B1: chimeric anti-CLDN 18.2 antibody ch5C9 (antibody, human IgG1, kappa, V domains shown)
VH: EVKLQESGPELKKPGETVKISCKASGYTFTNYGMNWVKQAPGKGLKWMGWINMYTGEPTYADDFKGRFAFSLETSASTAYLQINNLKNEDTATYFCSRLYNGNSLDYWGQGTSLTVSS
VL: DILLTQSPLSLTVTAGEKVTMSCKSSQSLLNSGNQKSYLTWYQQKPGQPPKLLLYWASTRESGVPARFTGSGSGTDFSLTISSVQTEDLAVYYCQNAYSFPFTFGSGTKLEINR
B2: chimeric anti-CLDN 18.2 antibody ch15G11 (antibody, V domains shown)
VH: EVQLQESGGGLVQPGGSRKLSCAASGFSFSSFGMHWVRQAPEKGLEWVAFISSGSSPIYYADTVKGRFTVSRDNPKNTLFLQMTSLRSEDTAMYFCARNYYGNAMDYWGQGSSVTVSS
VL: DIMMTQSPLSLTVTAGEKVTMNCKSSQSLLNGGNQKNYLAWYQQKPGQPPKLLIYWASTRESGVPARFTGSGSGTDFTLTINTVQAEDLAVYYCQNDYFYPLTFGTGTKLELKR
B3: h5C9o Fc mutation (antibody, V domains shown)
VH: EVQLVESGGGLVQPGGSLRLSCAVSGYTFSMNWVRQAPGKGLEWVAWINMYTGEPTYADDFKGRFTISRDDSKNTLYLQMNSLRAEDTAVYYCARLYNGNSLDYWGQGTLVTVSS
VL: DIQMTQSPSSLSASVGDRVTITCKSSQSLLNSGNQKSYLTWYQQKPGKAPKLLIYWASTLESGVPSRFSGSGSGTDYTLTISSLQPEDFATYYCQNAYSFPFTFGQGTKVEIKR
B4: Anti-CLDN 18.2-5C9ob (humanized antibody h5C9ob) (antibody, human IgG1, V domains shown)
VH: EVQLVESGGGLVQPGGSLRLSCAVSGYTFSMNWVRQAPGKGLEWVAWINMYTGEPTYADDFKGRFTISRDDSKNTLYLQMNSLRAEDTAVYYCARLYNGNSLDYWGQGTLVTVSS
VL: DIQMTQSPSSLSASVGDRVTITCKSSQSLLNSGNQKSYLTWYQQKPGKAPKLLIYWASTLESGVPSRFSGSGSGTDYTLTISSLQPEDFATYYCQNAYFFPFTFGQGTKVEIK
B5: Anti-CLDN 18.2-5C9oae (humanized antibody h5C9oae) (antibody, human IgG1, V domains shown)
VH: EVQLVESGGGLVQPGGSLRLSCAVSGYTFSMNWVRQAPGKGLEWVAWINMYTGEPTYADDFKGRFTISRDDSKNTLYLQMNSLRAEDTAVYYCARLYRGNSLDYWGQGTLVTVSS
VL: DIQMTQSPSSLSASVGDRVTITCKSSQSLLNSGNQKSYLTWYQQKPGKAPKLLIYWASTLESGVPSRFSGSGSGTDYTLTISSLQPEDFATYYCQNAYFFPFTFGQGTKVEIK
B6: humanized anti-Claudin 18.2 antibody h5C9oan (antibody, human IgG1, kappa, V domains shown)
VH: EVQLVESGGGLVQPGGSLRLSCAVSGYTFSMNWVRQAPGKGLEWVAWINMYTGEPTYADDFKGRFTISRDDSKNTLYLQMNSLRAEDTAVYYCARSSRGNGFDYWGQGTLVTVSS
VL: DIQMTQSPSSLSASVGDRVTITCKSSQSLLNSGNQKSYLTWYQQKPGKAPKLLIYWASTLESGVPSRFSGSGSGTDYTLTISSLQPEDFATYYCQNAYFFPFTFGQGTKVEIKR
B7: humanized anti-Claudin 18.2 antibody h5C9oao (antibody, human IgG1, kappa, V domains shown)
VH: EVQLVESGGGLVQPGGSLRLSCAVSGYTFSMNWVRQAPGKGLEWVAWINMYTGEPTYADDFKGRFTISRDDSKNTLYLQMNSLRAEDTAVYYCARLARGNSMDYWGQGTLVTVSS
VL: DIQMTQSPSSLSASVGDRVTITCKSSQSLLNSGNQKSYLTWYQQKPGKAPKLLIYWASTLESGVPSRFSGSGSGTDYTLTISSLQPEDFATYYCQNAYFFPFTFGQGTKVEIKR
B8: h5C9oh (antibody, V domains shown)
VH: EVQLVESGGGLVQPGGSLRLSCAVSGYTFSMNWVRQAPGKGLEWVAWINMYTGEPTYADDFKGRFTISRDDSKNTLYLQMNSLRAEDTAVYYCARLYRGNSLDYWGQGTLVTVSS
VL: DIQMTQSPSSLSASVGDRVTITCKSSQSLLNSGNQKSYLTWYQQKPGKAPKLLIYWASTLESGVPSRFSGSGSGTDYTLTISSLQPEDFATYYCQNAYEFPFTFGQGTKVEIK
B9: h5C9oi (antibody, V domains shown)
VH: EVQLVESGGGLVQPGGSLRLSCAVSGYTFSMNWVRQAPGKGLEWVAWINMYTGEPTYADDFKGRFTISRDDSKNTLYLQMNSLRAEDTAVYYCARMYNGNSLDYWGQGTLVTVSS
VL: DIQMTQSPSSLSASVGDRVTITCKSSQSLLNSGNQKSYLTWYQQKPGKAPKLLIYWASTLESGVPSRFSGSGSGTDYTLTISSLQPEDFATYYCQNSYSFPFTFGQGTKVEIK
B10: h5C9oj (antibody, V domains shown)
VH: EVQLVESGGGLVQPGGSLRLSCAVSGYTFSMNWVRQAPGKGLEWVAWINMYTGEPTYADDFKGRFTISRDDSKNTLYLQMNSLRAEDTAVYYCARLYNGNALDYWGQGTLVTVSS
VL: DIQMTQSPSSLSASVGDRVTITCKSSQSLLNSGNQKSYLTWYQQKPGKAPKLLIYWASTLESGVPSRFSGSGSGTDYTLTISSLQPEDFATYYCQNAYFFPFTFGQGTKVEIK
B11: h5C9oab (antibody, V domains shown)
VH: EVQLVESGGGLVQPGGSLRLSCAVSGYTFSMNWVRQAPGKGLEWVAWINMYTGEPTYADDFKGRFTISRDDSKNTLYLQMNSLRAEDTAVYYCARLYNGNSLDYWGQGTLVTVSS
VL: DIQMTQSPSSLSASVGDRVTITCKSSQSLLNSGNQKSYLTWYQQKPGKAPKLLIYWASTLESGVPSRFSGSGSGTDYTLTISSLQPEDFATYYCQNAYYFPFTFGQGTKVEIK
B12: h5C9oad (antibody, V domains shown)
VH: EVQLVESGGGLVQPGGSLRLSCAVSGYTFSMNWVRQAPGKGLEWVAWINMYTGEPTYADDFKGRFTISRDDSKNTLYLQMNSLRAEDTAVYYCARLYRGNSLDYWGQGTLVTVSS
VL: DIQMTQSPSSLSASVGDRVTITCKSSQSLLNSGNQKSYLTWYQQKPGKAPKLLIYWASTLESGVPSRFSGSGSGTDYTLTISSLQPEDFATYYCQNAYYFPFTFGQGTKVEIK
B13: h5C9oaf (antibody, V domains shown)
VH: EVQLVESGGGLVQPGGSLRLSCAVSGYTFSMNWVRQAPGKGLEWVAWINMYTGEPTYADDFKGRFTISRDDSKNTLYLQMNSLRAEDTAVYYCARLFNGNSLDYWGQGTLVTVSS
VL: DIQMTQSPSSLSASVGDRVTITCKSSQSLLNSGNQKSYLTWYQQKPGKAPKLLIYWASTLESGVPSRFSGSGSGTDYTLTISSLQPEDFATYYCQNAYYFPFTFGQGTKVEIKR
B14: h5C9oaj (antibody, human IgG1, kappa, V domains shown)
VH: EVQLVESGGGLVQPGGSLRLSCAVSGYTFSMNWVRQAPGKGLEWVAWINMYTGEPTYADDFKGRFTISRDDSKNTLYLQMNSLRAEDTAVYYCARLARGNSIDYWGQGTLVTVSS
VL: DIQMTQSPSSLSASVGDRVTITCKSSQSLLNSGNQKSYLTWYQQKPGKAPKLLIYWASTLESGVPSRFSGSGSGTDYTLTISSLQPEDFATYYCQNAYYFPFTFGQGTKVEIKR
B15: h5C9oak (antibody, human IgG1, kappa, V domains shown)
VH: EVQLVESGGGLVQPGGSLRLSCAVSGYTFSMNWVRQAPGKGLEWVAWINMYTGEPTYADDFKGRFTISRDDSKNTLYLQMNSLRAEDTAVYYCARSSRGNGFDYWGQGTLVTVSS
VL: DIQMTQSPSSLSASVGDRVTITCKSSQSLLNSGNQKSYLTWYQQKPGKAPKLLIYWASTLESGVPSRFSGSGSGTDYTLTISSLQPEDFATYYCQNAYYFPFTFGQGTKVEIKR
B16: h5C9oal (antibody, human IgG1, kappa, V domains shown)
VH: EVQLVESGGGLVQPGGSLRLSCAVSGYTFSMNWVRQAPGKGLEWVAWINMYTGEPTYADDFKGRFTISRDDSKNTLYLQMNSLRAEDTAVYYCARLARGNSMDYWGQGTLVTVSS
VL: DIQMTQSPSSLSASVGDRVTITCKSSQSLLNSGNQKSYLTWYQQKPGKAPKLLIYWASTLESGVPSRFSGSGSGTDYTLTISSLQPEDFATYYCQNAYYFPFTFGQGTKVEIKR
B17: h5C9oam (antibody, human IgG1, kappa, V domains shown)
VH: EVQLVESGGGLVQPGGSLRLSCAVSGYTFSMNWVRQAPGKGLEWVAWINMYTGEPTYADDFKGRFTISRDDSKNTLYLQMNSLRAEDTAVYYCARLARGNSIDYWGQGTLVTVSS
VL: DIQMTQSPSSLSASVGDRVTITCKSSQSLLNSGNQKSYLTWYQQKPGKAPKLLIYWASTLESGVPSRFSGSGSGTDYTLTISSLQPEDFATYYCQNAYFFPFTFGQGTKVEIKR
B18: Anti-CLDN 18.2-5C9oag (humanized antibody h5C9oag) (antibody, human IgG1, V domains shown)
VH: EVQLVESGGGLVQPGGSLRLSCAVSGYTFSMNWVRQAPGKGLEWVAWINMYTGEPTYADDFKGRFTISRDDSKNTLYLQMNSLRAEDTAVYYCARLARGNSIDYWGQGTLVTVSS
VL: DIQMTQSPSSLSASVGDRVTITCKSSQSLLNSGNQKSYLTWYQQKPGKAPKLLIYWASTLESGVPSRFSGSGSGTDYTLTISSLQPEDFATYYCQNAYSFPFTFGQGTKVEIK
B19: h5C9oah (antibody, V domains shown)
VH: EVQLVESGGGLVQPGGSLRLSCAVSGYTFSMNWVRQAPGKGLEWVAWINMYTGEPTYADDFKGRFTISRDDSKNTLYLQMNSLRAEDTAVYYCARSSRGNGFDYWGQGTLVTVSS
VL: DIQMTQSPSSLSASVGDRVTITCKSSQSLLNSGNQKSYLTWYQQKPGKAPKLLIYWASTLESGVPSRFSGSGSGTDYTLTISSLQPEDFATYYCQNAYSFPFTFGQGTKVEIK
B20: Anti-CLDN 18.2-5C9oai (humanized antibody h5C9oai) (antibody, human IgG1, V domains shown)
VH: EVQLVESGGGLVQPGGSLRLSCAVSGYTFSMNWVRQAPGKGLEWVAWINMYTGEPTYADDFKGRFTISRDDSKNTLYLQMNSLRAEDTAVYYCARLARGNSMDYWGQGTLVTVSS
VL: DIQMTQSPSSLSASVGDRVTITCKSSQSLLNSGNQKSYLTWYQQKPGKAPKLLIYWASTLESGVPSRFSGSGSGTDYTLTISSLQPEDFATYYCQNAYSFPFTFGQGTKVEIK

Assays:
[1] = molecular target: Recombinant protein Claudin 18.2; experiment: ELISA, recombinant Claudin 18.2 coated at 4.5 ug/mL (Example 67), OD370; Kd table under the graph, no unit in the table, unit from the x axis log[antibody] nM
[2] = molecular target: Recombinant protein Claudin 18.2; experiment: ELISA on plate-coated recombinant Claudin 18.2, OD450; Kd table under the graph, no unit in the table, unit from the x axis log[antibody] nM
[3] = molecular target: Recombinant protein Claudin 18.2; experiment: ELISA-based assay on Claudin 18.2, y axis RLU; Kd table under the graph, no unit in the table, unit from the x axis log[antibody] nM
[4] = molecular target: Recombinant protein Claudin 18.2; experiment: ELISA on plate-coated recombinant Claudin 18.2, OD450; Kd table under the graph, no unit in the table, unit from the x axis log[antibody] nM; remark: listed apart in the source
[5] = molecular target: Recombinant protein Claudin 18.2; experiment: ELISA-based assay on Claudin 18.2, y axis RLU; Kd table under the graph, no unit in the table, unit from the x axis log[antibody] nM; remark: listed apart in the source
[6] = molecular target: Recombinant protein Claudin 18.2; experiment: as above; remark: listed apart in the source

Recombinant protein Claudin 18.2, sequence (chain, as listed by the source limits assumed, form in doubt): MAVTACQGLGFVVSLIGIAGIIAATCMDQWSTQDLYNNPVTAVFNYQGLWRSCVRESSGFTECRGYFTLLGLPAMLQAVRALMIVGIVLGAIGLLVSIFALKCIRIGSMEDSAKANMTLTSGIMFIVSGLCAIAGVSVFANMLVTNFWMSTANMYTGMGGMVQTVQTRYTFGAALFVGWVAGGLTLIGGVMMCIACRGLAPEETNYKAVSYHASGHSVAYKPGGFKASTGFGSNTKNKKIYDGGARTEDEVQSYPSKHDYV

| Binder | Kd [5] | Kd [6] | also measured |
| --- | --- | --- | --- |
| B1 |  |  | Kd [1]: 0.0988 nM |
| B2 |  |  | Kd [1]: 0.0939 nM |
| B3 |  |  | Kd [2]: 0.114 nM; Kd [3]: 0.162 nM |
| B4 | 0.16 nM | 0.213 nM | Kd [2]: 0.129 nM; Kd [4]: 0.0863 nM; Kd [3]: 0.13 nM |
| B5 |  | 0.183 nM | Kd [2]: 0.14 nM; Kd [3]: 0.109 nM |
| B6 |  |  | Kd [3]: 0.12 nM |
| B7 |  |  | Kd [2]: 0.134 nM; Kd [3]: 0.102 nM |
| B8 |  | 0.201 nM | Kd [4]: 0.0802 nM |
| B9 |  | 0.316 nM | Kd [4]: 0.0868 nM |
| B10 |  | 0.276 nM | Kd [4]: 0.0777 nM |
| B11 | 0.164 nM |  |  |
| B12 | 0.175 nM |  |  |
| B13 | 0.162 nM |  |  |
| B14 | 0.173 nM |  |  |
| B15 | 0.161 nM |  |  |
| B16 | 0.198 nM |  |  |
| B17 | 0.172 nM |  |  |
| B18 |  | 0.196 nM |  |
| B19 |  | 0.236 nM |  |
| B20 |  | 0.196 nM |  |
